Assay results reported in patent publication US20210121406A1 (AstraZeneca / MedImmune, published 2021).
Where a chain is given by its changes, count along the chain named.

B1: Fab1 (Fab, V domains shown)
VH: QMQLVESGGGVVQPGRSLRLSCAASGFTFRTYGMHWVRQAPGKGLEWVAVIWYDGSNKHYADSVKGRFTITRDNSKNTLNLQMNSLRAEDTAVYYCARAPQWELVHEAFDIWGQGTMVTVSS
VL: SYVLTQPPSVSVAPGQTARITCGGNNLGSKSVHWYQQKPGQAPVLVVYDDSDRPSWIPERFSGSNSGNTATLTISRGEAGDEADYYCQVWDSSSDHVVFGGGTKLTVLG
notes: CDRs of anti-TSLP mAb A5 (WO 2009/035577) cloned into an IgG1 Fab scaffold; also called anti-TSLP Fab; MEDI8630
B2: Fab2 (Fab, V domains shown)
VH: B1 VH
VL: SYVLTQPPSVSVAPGQTARITCGGNNIGSKSVHWYQQKPGQAPVLVVYDDSDRPSWIPERFSGSNSGNTATLTISRGEAGDEADYYCQVWDSSSDHVVFGGGTKLTVL
B3: Fab5 (Fab, V domains shown)
VH: B1 VH with G66A
VL: B2 VL with I27L
notes: Only the changed VH is printed
B4: Fab8 (Fab, V domains shown)
VH: B1 VH
VL: B2 VL with I27L, S92T
notes: Only the changed VL is printed
B5: Fab9 (Fab, V domains shown)
VH: B1 VH
VL: B2 VL with I27L, S93T
notes: as for B4
B6: Fab7 (Fab, V domains shown)
VH: B1 VH
VL: B2 VL with N26Q, I27L
notes: VL as labelled 'LIGHT CHAIN VL FAB7'
B7: Fab4 (Fab, V domains shown)
VH: B1 VH with D62E
VL: B2 VL with I27L
notes: as for B3
B8: Fab3 (Fab, V domains shown)
VH: B1 VH
VL: B2 VL with I27V
notes: as for B4
B9: Fab6 (Fab, V domains shown)
VH: B1 VH
VL: B2 VL with N25Q, I27L
notes: as for B4
B10: cyno TSLP (ligand, cynomolgus (cyno))
chain: YDFTNCDFQKIEADYLRTISKDLITYMSGTKSTDFNNTVSCSNRPHCLTEIQSLTFNPTPRCASLAKEMFARKTKATLALWCPGYSETQINATQAMKKRRKRKVTTNKCLEQVSQLLGLWRRFIRTLLKKQ
notes: As used in solution in the KinExA assay; also called Cynomolgus TSLP

How the values were obtained:
cyno TSLP = molecular target: B10; assay: KinExA, solution phase, global 1:1 fit
[1] = molecular target: T1, N-terminally tagged biotinylated cyno TSLP (cynomolgus (cyno), UniProt A0A7N9CAT7 29-159, biotinylated (site not stated)); assay: SPR (Biacore 8K), biotinylated TSLP on streptavidin, Fab1 in flow, 1:1 Langmuir model
T1 construct: Captured on streptavidin in the Biacore assay; also called Cynomolgus TSLP; recombinant mammalian cell-expressed cyno TSLP; not shown: N-terminal tag

[2] = molecular target: T2, biotinylated His-Avi hu TSLP (human, UniProt Q969D9 29-159, biotinylated (site not stated)); assay: HTRF competition; competitor DyLight-labelled tezepelumab
T2 construct: also called biotinylated TSLP; not shown: His-Avi tag

Fab1 [3] = molecular target: B1; assay: KinExA, cyno TSLP titrated into 40 pM fixed Fab1 (open squares); free Fab1 captured on hu TSLP-coated beads
Fab1 [4] = molecular target: B1; assay: KinExA, cyno TSLP titrated into 1000 pM fixed Fab1 (filled diamonds); free Fab1 captured on hu TSLP-coated beads

B1
Kd (cyno TSLP): 0.0136 nM
Kd [1]: 0.0884 nM

B2
IC50 [2]: 0.29 nM

B3
IC50 [2]: 0.42 nM

B4
IC50 [2]: 0.29 nM

B5
IC50 [2]: 0.29 nM

B6
IC50 [2]: 0.24 nM

B7
IC50 [2]: 0.36 nM

B8
IC50 [2]: 0.24 nM

B9
IC50 [2]: 0.32 nM

B10
IC50 (read off the curve) (Fab1 [3]): ~0.04 nM
IC50 (read off the curve) (Fab1 [4]): ~0.6 nM
